Test results published in patent US20190002945A1.

Biological target: deglycosylated rituximab (Fucα1,6GlcNAc-rituximab)
Assay: cell-based or functional assay

Row | Substance | KM (µM), transglycosylation kinetics for the deglycosylated rituximab [µM] | KM relative to Endo-S2 D184M [fold]
1 | Endo-S D233A mutant (Streptococcus pyogenes Endoglycosidase-S Asp-233-Ala) (from UniProt Q99Y92 37-995) (enzyme) | > 200 | 
2 | Endo-S D233M mutant (Streptococcus pyogenes Endoglycosidase-S Asp-233-Met) (from UniProt Q99Y92 37-995) (enzyme) | 30.2 | 
3 | Endo-S2 D184M mutant (D184M mutant of wild type Endo-S2) (from UniProt T1WGN1 37-843) (enzyme) | 32.6 | 
4 | Endo-S2 D184A mutant (D184A mutant of wild type Endo-S2) (from UniProt T1WGN1 37-843) (enzyme) | > 680 | > 20
